Measured values from US20040091503A1.

Target: murine GM-CSF receptor (on FDC-P1 cells) (murine) (UniProt Q00941)
Assay: cell-based or functional assay

Sequence of UniProt Q00941 (Q00941 30-388, chain 1 of 2): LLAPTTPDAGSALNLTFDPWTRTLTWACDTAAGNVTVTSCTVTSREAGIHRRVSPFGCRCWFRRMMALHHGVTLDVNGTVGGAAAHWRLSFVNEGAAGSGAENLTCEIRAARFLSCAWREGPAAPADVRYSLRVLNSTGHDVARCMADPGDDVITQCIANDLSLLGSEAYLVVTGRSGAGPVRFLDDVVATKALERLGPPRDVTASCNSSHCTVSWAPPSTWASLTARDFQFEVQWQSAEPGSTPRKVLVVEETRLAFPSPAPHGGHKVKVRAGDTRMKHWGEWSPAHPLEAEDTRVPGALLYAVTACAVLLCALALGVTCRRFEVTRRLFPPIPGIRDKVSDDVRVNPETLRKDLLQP
Sequence of UniProt Q00941 (P26955 23-896, chain 2 of 2, further chain): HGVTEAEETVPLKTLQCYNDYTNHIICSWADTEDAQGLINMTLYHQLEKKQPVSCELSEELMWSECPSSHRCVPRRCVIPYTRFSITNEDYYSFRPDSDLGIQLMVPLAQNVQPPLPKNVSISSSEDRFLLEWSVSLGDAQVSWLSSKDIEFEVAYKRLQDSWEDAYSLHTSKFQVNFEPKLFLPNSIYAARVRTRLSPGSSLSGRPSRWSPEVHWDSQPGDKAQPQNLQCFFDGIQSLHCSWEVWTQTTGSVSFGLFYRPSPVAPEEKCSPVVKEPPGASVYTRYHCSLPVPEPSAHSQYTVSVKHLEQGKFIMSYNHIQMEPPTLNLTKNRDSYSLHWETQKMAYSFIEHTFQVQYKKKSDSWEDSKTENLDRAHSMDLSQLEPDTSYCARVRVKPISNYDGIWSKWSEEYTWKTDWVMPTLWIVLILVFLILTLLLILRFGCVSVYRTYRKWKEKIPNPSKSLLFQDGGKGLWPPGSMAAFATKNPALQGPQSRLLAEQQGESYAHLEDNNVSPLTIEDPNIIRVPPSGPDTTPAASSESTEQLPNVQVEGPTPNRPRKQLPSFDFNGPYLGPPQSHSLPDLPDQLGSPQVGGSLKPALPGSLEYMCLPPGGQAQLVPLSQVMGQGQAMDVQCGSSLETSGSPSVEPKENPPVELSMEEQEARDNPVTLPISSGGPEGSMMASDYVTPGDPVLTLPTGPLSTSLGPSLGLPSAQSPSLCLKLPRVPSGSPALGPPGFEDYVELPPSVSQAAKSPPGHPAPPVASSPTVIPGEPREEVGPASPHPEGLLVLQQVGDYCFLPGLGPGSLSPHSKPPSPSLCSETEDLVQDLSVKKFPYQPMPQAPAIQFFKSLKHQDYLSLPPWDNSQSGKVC

- proliferation of FDC-P1 cells (Biotrak Cell Proliferation ELISA, BrdU): 25%
Substance: GPI-GM-CSF (murine GM-CSF fused to the S. cerevesiae Gas1 GPI modification signal sequence) (from UniProt P01587 18-141; P22146 474-528) (ligand; the values are: proliferation increase over soluble GM-CSF)
